How the values were obtained:
[1] = biological target: Alpha SARS-CoV-2 spike on pseudotyped lentivirus (SARS-CoV-2, UniProt P0DTC2 14-1273); experiment: cell-based or functional assay
[2] = biological target: Beta SARS-CoV-2 spike on pseudotyped lentivirus (SARS-CoV-2, UniProt P0DTC2 14-1273); experiment: cell-based or functional assay
[3] = biological target: P.1 (Gamma) SARS-CoV-2 spike protein, plate-coated (MSD) (SARS-CoV-2, UniProt P0DTC2 14-1208); experiment: MSD competition vs labelled ACE2

B1: REGN10933 (Casirivimab) (antibody, V domains shown)
VH: QVQLVESGGGLVKPGGSLRLSCAASGFTFSDYYMSWIRQAPGKGLEWVSYITYSGSTIYYADSVKGRFTISRDNAKSSLYLQMNSLRAEDTAVYYCARDRGTTMVPFDYWGQGTLVTVSS
VL: DIQMTQSPSSLSASVGDRVTITCQASQDITNYLNWYQQKPGKAPKLLIYAASNLETGVPSRFSGSGSGTDFTFTISGLQPEDIATYYCQQYDNLPLTFGGGTKVEIKR
B1 was tested, and the “Pseudovirus Neutralization (IC50, nM)” value [1] was 0.05 nM.

B2: Bamlanivimab (antibody, V domains shown)
VH: QVQLVQSGAEVKKPGSSVKVSCKASGGTFSNYAISWVRQAPGQGLEWMGRIIPILGIANYAQKFQGRVTITADKSTSTAYMELSSLRSEDTAVYYCARGYYEARHYYYYYAMDVWGQGTAVTVSS
VL: not shown
B2 was tested, and the “Pseudovirus Neutralization (IC50, nM)” value [1] was 1.9 nM and the “Pseudovirus Neutralization (IC50, nM)” value [2] was > 100 nM.

B3: Etesevimab (antibody, V domains shown)
VH: EVQLVESGGGLVQPGGSLRLSCAASGFTVSSNYMSWVRQAPGKGLEWVSVIYSGGSTFYADSVKGRFTISRDNSMNTLFLQMNSLRAEDTAVYYCARVLPMYGDYLDYWGQGTLVTVSS
VL: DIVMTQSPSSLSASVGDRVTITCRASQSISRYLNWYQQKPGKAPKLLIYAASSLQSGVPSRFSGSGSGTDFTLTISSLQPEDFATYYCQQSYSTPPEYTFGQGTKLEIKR
For B3, the IC50 [3] was 0.08 nM.

B4: REGN10987 (Imdevimab) (antibody, V domains shown)
VH: QVQLVESGGGVVQPGRSLRLSCAASGFTFSNYAMYWVRQAPGKGLEWVAVISYDGSNKYYADSVKGRFTISRDNSKNTLYLQMNSLRTEDTAVYYCASGSDYGDYLLVYWGQGTLVTVSS
VL: QSALTQPASVSGSPGQSITISCTGTSSDVGGYNYVSWYQQHPGKAPKLMIYDVSKRPSGVSNRFSGSKSGNTASLTISGLQSEDEADYYCNSLTSISTWVFGGGTKLTVLR
In the case of B4, the “Pseudovirus Neutralization (IC50, nM)” value [1] is reported as 0.13 nM and the “Pseudovirus Neutralization (IC50, nM)” value [2] is reported as 41.1 nM.

Reference: patent US20240327815A1 (Zymeworks, published 2024)
